Measured values from the supplement of paper PMC12667976.

B1: library; numbered along this chain (parent)
chain: MATDAALRRLLRLHRTEIAVAVDSAFPLLHALADHDVVPEDKFQETLHLKEKEGCPQAFHALLSWLLTQDSTAILDFWRVLFKDYNLERYGRLQPILDSFPKDVDLSQPRKGRKPPAVPKALVPPPRLPTKRKASEEARAAAPAALTPRGTASPGSQLKAKPPKKPESSAEQQRLPLGNGIQTMSASVQRAVAMSSGDVPGARGAVEGILIQQVFESGGSKKCIQVGGEFYTPSKFEDSGSGKNKARSSSGPKPLVRAKGAQGAAPGGGEARLGQQGSVPAPLALPSDPQLHQKNEDECAVCRDGGELICCDGCPRAFHLACLSPPLREIPSGTWRCSSCLQATVQEVQPRAEEPRPQEPPVETPLPPGLRSAGEEVRGPPGEPLAGMDTTLVYKHLPAPPSAAPLPGLDSSALHPLLCVGPEGQQNLAPGARCGVCGDGTDVLRCTHCAAAFHWRCHFPAGTSRPGTGLRCRSCSGDVTPAPVEGVLAPSPARLAPGPAKDDTASHEPALHRDDLESLLSEHTFDGILQWAIQSMARPAAPFPS

Variants of: B1
Assay: AIRE transcriptional activation functional score (insulin promoter-GFP; nonsense median 0, synonymous median 1) (normalised score); higher = higher AIRE activity (more reporter activation)
Conditions: with insulin promoter-GFP reporter in HEK293
Outline: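 Using Bxb1 recombinase, codon-optimized NNN-codon libraries for three AIRE regions were inserted into Flp-In T-REx HEK293 landing-pad cells with an insulin core promoter-GFP reporter. After integrants (mCherry+, BFP−) were sorted at day 7 and expanded for 7 days, the top 10% GFP and unselected integrant populations underwent tile-sequencing. Functional scores are wild-type-subtracted enrichments of variants in select over non-select samples. A cutoff of 10 counts per million in non-select applied, and values were rescaled (nonsense median 0, synonymous median 1) and averaged over biological replicates.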

AIRE transcriptional activation functional score of substitutions, site by site:
C449: I -0.224, V 0.0568, A -0.278, W 0.0652, Q 0.388, L 0.195, R 0.252, G 0.257, Y 0.106, M -0.542, E 0.0473, F 0.317, N -0.014
G438: L 0.0897, R 1.1, E 0.922, K 1.12, C 1.25, Q 1.23, M 1.31, S 1.24, N 0.938, F 0.712, I 1.08, W 1.26, D 0.196, T 0.646, P 0.303, V 1.1, A 1.21
H448: Q 1.05, D 0.718, Y 1.26, R 0.695, N 1.18, V 0.416, T 1.54, L 1.07, F 0.906, W 0.403, I 0.59, A 0.696, P 0.0826, S 0.0363
D439: V 0.869, R 0.536, Y 1.35, K 0.809, T 1.03, F -0.443, P 0.0529, L 0.586, N 1.07, W 1.2, Q 0.923, E 0.881, S 0.93, G 0.919, H 1.32, I 0.279, C 1.16, A 1.1
V443: Y 0.882, F 0.581, T 0.921, R 0.0498, K 0.0676, W 0.235, S 0.937, I 0.968, A 0.969, L 0.596, C 1.15, P 1.15, G 1.13, Q 0.368, H 1.16, E 1.12, D 0.0282, M 1.29, N 0.847
D442: A 0.791, F -0.04, N 0.93, E 0.869, P 0.0269, Q 1.03, T 0.24, C 0.845, V -0.000931, R 0.257, I -0.0637, G 1.08, H 0.38, L 0.0551, K 0.322, S 0.83, Y 0.265, M 0.124, W -0.0188
V436: A 0.0856, T 0.824, R 0.525, L 0.995, F 1.11, P 0.39, C 1.33, E 0.492, D 0.874, G 0.916, I 1.35, Y 1.28, M 0.555, S 0.217, N 1.19, K 1.21, Q 0.854, H 0.883
A452: D 0.712, F 0.934, R 0.86, C 1.13, S 1.04, L 0.666, K 0.517, T 0.973, G 0.775, V 0.915, E 1.54, H 0.816, M 0.473, P 0.719
T447: F 0.707, A 1.02, C 0.201, R 0.679, D 0.924, S 1.29, I 1.4, M 1.49, L 1.2, W 1.32, Y 0.458, Q 0.797, N 1.26, G 1.03, E 0.425, V 1.18
G435: Y 0.365, E 0.463, T 0.0827, K 1.2, L 0.516, I 0.437, A 1.16, S 0.74, N 0.945, C 1.18, H 0.284, D -0.0125, W 0.957, V 0.849, F 0.364, P 1.14, M 0.379, R 1.03, Q 0.663
